From article PMC6123696, “Multitasking of Hsp70 chaperone in the biogenesis of bacterial functional amyloids” (Communications Biology, 2018)

B1: CsgA_(2–20) (signal peptide of CsgA without the N-terminal Met) (peptide)
peptide: KLLKVAAIAAIVFSGSALA
notes: also called CsgA signal peptide; source: synthetic peptide (Eurofins Genomics, HPLC >95%)
B2: CsgA_(133–151) (R5, the most amyloidogenic of the five repeats) (peptide)
peptide: SSVNVTQVGFGNNATAHQY
notes: source: synthetic peptide (Eurofins Genomics, HPLC >95%)
B3: N-terminal 8-amino acid peptide of CsgB (NH2-KNKLLFMM-COOH) (peptide)
peptide: H-KNKLLFMM-OH
notes: source: synthetic peptide, CelluSpot peptide array (Intavis Bioanalytical Instruments)
B4: N-terminal 8-amino acid peptide of CsgA (NH2-KLLKVAAI-COOH) (peptide)
peptide: H-KLLKVAAI-OH
notes: as for B3

Columns and labels:
[1] = target: T1, N-terminal His-tagged DnaK (His-DnaK) (E. coli, UniProt P0A6Y8 1-638); test: SPR; BIAcore T200; CsgA peptides immobilised on a CM7 chip by EDC/NHS coupling; DnaK 50–1000 nM as analyte, single-cycle kinetics; 25 °C; HBS-DM buffer (10 mM HEPES pH 7.4, 150 mM NaCl, 5 mM MgCl2, 1% dimethylsulfoxide); 30 μL min^−1; fit with a 1:1 binding mode; details: both partners purified
T1 construct: also called DnaKWT; bacterial Hsp70; source: E. coli BL21 (DE3), from pDnaKWT (ASKA clone), purified (TALON, Mono Q, Superdex G-200); not shown: His tag, N-terminal, kept

[2] = target: T1, N-terminal His-tagged DnaK (His-DnaK); test: peptide or protein array; CelluSpot array of cellulose-bound peptides on glass slides (8-residue peptides overlapping by seven); 50 nM His-DnaK in DB buffer (25 mM Tris-HCl pH 7.5, 150 mM NaCl, 10 mM KCl, 0.05% Tween 20, 5% sucrose) overnight at 4 °C; detected with HRP-conjugated anti-His antibody; details: both partners purified

T1 sequence (P0A6Y8 whole entry): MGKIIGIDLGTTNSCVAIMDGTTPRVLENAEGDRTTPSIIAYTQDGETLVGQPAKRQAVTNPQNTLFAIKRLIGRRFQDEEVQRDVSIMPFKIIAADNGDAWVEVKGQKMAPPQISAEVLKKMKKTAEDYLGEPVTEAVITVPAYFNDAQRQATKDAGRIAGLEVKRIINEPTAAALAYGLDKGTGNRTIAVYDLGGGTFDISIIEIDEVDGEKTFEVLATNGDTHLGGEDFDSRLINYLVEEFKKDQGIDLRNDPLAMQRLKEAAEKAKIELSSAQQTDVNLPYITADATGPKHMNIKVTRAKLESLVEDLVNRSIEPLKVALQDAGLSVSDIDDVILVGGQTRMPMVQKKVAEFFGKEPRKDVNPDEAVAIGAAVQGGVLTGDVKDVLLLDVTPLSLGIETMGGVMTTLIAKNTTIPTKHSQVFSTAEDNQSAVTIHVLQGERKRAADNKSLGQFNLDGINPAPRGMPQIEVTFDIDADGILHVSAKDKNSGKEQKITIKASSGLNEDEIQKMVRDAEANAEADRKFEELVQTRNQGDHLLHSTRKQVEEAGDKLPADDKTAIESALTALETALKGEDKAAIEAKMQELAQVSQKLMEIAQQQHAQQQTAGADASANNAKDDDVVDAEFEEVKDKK

| Binder | Kd [1] [nM] | koff [1] [s⁻¹] | kon [1] [M⁻¹ s⁻¹] | binding result [2] |
| --- | --- | --- | --- | --- |
| B1 | 2.19 | 0.000256 | 117000 | – |
| B2 | 20.7 | 9.77e-05 | 4720 | – |
| B3 | – | – | – | binds |
| B4 | – | – | – | binds |
